# Patent US20080220049A1
# Molecular target: mouse vascular endothelial growth factor receptor-2 Fc chimera (Flk-1-Fc) (mouse) (UniProt P35918)
# Experiment: radioactive equilibrium binding, 1 nM Flk-1-Fc
# Sequence of mouse vascular endothelial growth factor receptor-2 Fc chimera (Flk-1-Fc) (mouse) (P35918 20-762, change not shown): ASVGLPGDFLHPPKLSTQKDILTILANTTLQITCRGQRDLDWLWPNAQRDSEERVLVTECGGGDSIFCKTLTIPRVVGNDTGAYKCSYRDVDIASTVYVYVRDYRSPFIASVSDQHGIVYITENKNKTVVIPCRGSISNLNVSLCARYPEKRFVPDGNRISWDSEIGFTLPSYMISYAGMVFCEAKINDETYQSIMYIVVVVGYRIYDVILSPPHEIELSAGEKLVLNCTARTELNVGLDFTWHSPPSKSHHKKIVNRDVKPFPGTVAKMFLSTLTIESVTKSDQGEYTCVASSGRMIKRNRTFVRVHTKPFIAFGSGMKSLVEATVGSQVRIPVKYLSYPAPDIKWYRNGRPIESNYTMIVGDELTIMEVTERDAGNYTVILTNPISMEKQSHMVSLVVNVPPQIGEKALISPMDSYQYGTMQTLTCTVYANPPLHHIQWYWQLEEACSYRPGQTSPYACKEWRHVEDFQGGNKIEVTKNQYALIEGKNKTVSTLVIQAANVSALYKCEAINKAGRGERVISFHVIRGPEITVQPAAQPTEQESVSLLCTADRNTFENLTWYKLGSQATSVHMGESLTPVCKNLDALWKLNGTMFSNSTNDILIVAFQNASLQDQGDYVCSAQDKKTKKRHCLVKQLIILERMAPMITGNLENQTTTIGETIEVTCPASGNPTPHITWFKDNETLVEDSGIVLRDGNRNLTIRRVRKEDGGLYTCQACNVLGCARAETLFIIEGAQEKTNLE
row,Binder,"Binding to 1 nM Flk-1, %"
1,A9 (designed binder) EVVAATPTSLLISWRHPHFPTRYYRITYGETGGNSPVQEFTVPLQPPTATISGLKPGVDYTITGYAVTEGWNDRELFVPISINYRT,4%
2,F10 (designed binder) EVVAATPTSLLISWRHPHFPTRYYRITYGETGGNSPVQEFTVPLQPPTATISGLKPGVDYTITGYAVTMAPNGRELLTPISINYRT,1%
3,E21 (designed binder) EVVAATPTSLLISWRHPHFPTRYYRITYGETGGNSPVQEFTVPLQPPTATISGLKPGVDYTITGYAVTWGYKDHELLIPISINYRT,1%
4,A10 (designed binder) EVVAATPTSLLISWRHPHFPTRYYRITYGETGGNSPVQEFTVPLQPPTATISGLKPGVDYTITGYAVTFGWNGRELLTPISINYRT,4%
5,E22 (designed binder) EVVAATPTSLLISWRHPHFPTRYYRITYGETGGNSPVQEFTVPLQPPTATISGLKPGVDYTITGYAVTLGRNDRELLTPISINYRT,3%
6,D11 (designed binder) EVVAATPTSLLISWRHPHFPTRYYRITYGETGGNSPVQEFTVPLQPPTATISGLKPGVDYTITGYAVTVERNGHKLFTPISINYRT,3%
7,A7 (designed binder) EVVAATPTSLLISWRHPHFPTRYYRITYGETGGNSPVQEFTVPLQPPTATISGLKPGVDYTITGYAVTDGPNNRELIVPISINYRT,2%
8,E10 (designed binder) EVVAATPTSLLISWRHPHFPTRYYRITYGETGGNSPVQEFTVPLQPPTATISGLKPGVDYTITGYAVTEGRNGRELFIPISINYRT,3%
9,E13 (designed binder) EVVAATPTSLLISWRHPHFPTRYYRITYGETGGNSPVQEFTVPLQPPTATISGLKPGVDYTITGYAVTLEQNGRELMTPISINYRT,1%
10,F12 (designed binder) EVVAATPTSLLISWRHPHFPTRYYRITYGETGGNSPVQEFTVPLQPPTATISGLKPGVDYTITGYAVTDGRNGHELMTPISINYRT,1%

# Next, values leading:
row,"Binding to 1 nM Flk-1, %",Binder
1,2%,A4 (designed binder) EVVAATPTSLLISWRHPHFPTRYYRITYGETGGNSPVQEFTVPLQPPTATISGLKPGVDYTITGYAVTDGYNDRLLFIPISINYRT
2,1%,EGE9 (designed binder) EVVAATPTSLLISWRHPHFPTRYYRITYGETGGNSPVQEFTVPLQPPTATISGLKPGVDYTITGYAVTFGPNDRELLTPISINYRT
3,2%,F1 (designed binder) EVVAATPTSLLISWRHPHFPTRYYRITYGETGGNSPVQEFTVPLQPPTATISGLKPGVDYTITGYAVTSGRNDRELLVPISINYRT
4,1%,EGE10 (designed binder) EVVAATPTSLLISWRHPHFPTRYYRITYGETGGNSPVQEFTVPLQPPTATISGLKPGVDYTITGYAVTMGPNDRELLTPISINYRT
5,2%,E15 (designed binder) EVVAATPTSLLISWRHPHFPTRYYRITYGETGGNSPVQEFTVPLQPPTATISGLKPGVDYTITGYAVTLEPNGRYLMVPISINYRT
6,2%,G1 (designed binder) EVVAATPTSLLISWRHPHFPTRYYRITYGETGGNSPVQEFTVPLQPPTATISGLKPGVDYTITGYAVTEGRNGRELMVPISINYRT
7,4%,A8 (designed binder) EVVAATPTSLLISWRHPHFPTRYYRITYGETGGNSPVQEFTVPLQPPTATISGLKPGVDYTITGYAVTDGLNGKYLFVPISINYRT
8,1%,E12 (designed binder) EVVAATPTSLLISWRHPHFPTRYYRITYGETGGNSPVQEFTVPLQPPTATISGLKPGVDYTITGYAVTFARDGHEILTPISINYRT
9,1%,EGE11 (Table 2 row SEQ ID NO 88) (designed binder) EVVAATPTSLLISWRHPHFPTRYYRITYGETGGNSPVQEFTVPLQPPTATISGLKPGVDYTITGYAVTMGKNDRELLTPISINYRT
